In paper PMC10967246, “A novel tetratricopeptide-repeat protein, TTP1, forms complexes with glutamyl-tRNA reductase and protochlorophyllide oxidoreductase during tetrapyrrole biosynthesis” (Journal of Experimental Botany, 2023):

Assays:
Experiment in all cases: MST; 200 nM RED-NHS-labelled 6×His–TTP1 constant, decreasing amounts of the binding partner; phosphate-buffered saline; Monolith NT.115, standard capillaries, excitation 100%, MST power 40%; Kd fit for 1:1 stoichiometry
Conditions in all cases: both partners purified
[1] = target: T1, recombinant His-tagged PORB (Arabidopsis, UniProt P21218 67-401)
T1 construct: protochlorophyllide oxidoreductase B, Arabidopsis; source: recombinant, His-tagged
T1 sequence (looked up): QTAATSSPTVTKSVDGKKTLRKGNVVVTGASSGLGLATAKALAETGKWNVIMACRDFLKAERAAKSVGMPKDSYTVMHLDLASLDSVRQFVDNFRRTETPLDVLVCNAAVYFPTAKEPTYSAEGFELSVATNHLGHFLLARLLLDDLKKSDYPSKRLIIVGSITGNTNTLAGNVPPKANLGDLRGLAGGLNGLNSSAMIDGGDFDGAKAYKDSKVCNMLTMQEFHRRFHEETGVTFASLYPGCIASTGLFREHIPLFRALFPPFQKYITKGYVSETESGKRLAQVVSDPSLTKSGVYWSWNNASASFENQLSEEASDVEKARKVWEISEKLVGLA

[2] = target: T2, recombinant His-tagged GluTR-binding protein (GBP) (Arabidopsis, UniProt Q9LU39 43-317)
T2 construct: source: recombinant, His-tagged
T2 sequence (looked up): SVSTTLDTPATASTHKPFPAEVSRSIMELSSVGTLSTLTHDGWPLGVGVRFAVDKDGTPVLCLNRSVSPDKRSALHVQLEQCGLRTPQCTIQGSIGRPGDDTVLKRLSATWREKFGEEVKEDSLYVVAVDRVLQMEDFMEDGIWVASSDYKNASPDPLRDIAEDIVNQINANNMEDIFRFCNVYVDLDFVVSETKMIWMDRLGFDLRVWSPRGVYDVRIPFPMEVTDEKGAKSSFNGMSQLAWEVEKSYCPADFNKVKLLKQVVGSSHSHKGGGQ

[3] = target: T3, recombinant His-tagged full-length GluTR1 (Arabidopsis, UniProt P42804 62-543)
T3 construct: glutamyl-tRNA reductase 1 (HEMA1), Arabidopsis; called full-length GluTR1 in the legend; source: recombinant, His-tagged

[4] = target: T4, recombinant His-tagged PORC (Arabidopsis, UniProt O48741 68-401)
T4 construct: protochlorophyllide oxidoreductase C, Arabidopsis; source: recombinant, His-tagged
T4 sequence (looked up): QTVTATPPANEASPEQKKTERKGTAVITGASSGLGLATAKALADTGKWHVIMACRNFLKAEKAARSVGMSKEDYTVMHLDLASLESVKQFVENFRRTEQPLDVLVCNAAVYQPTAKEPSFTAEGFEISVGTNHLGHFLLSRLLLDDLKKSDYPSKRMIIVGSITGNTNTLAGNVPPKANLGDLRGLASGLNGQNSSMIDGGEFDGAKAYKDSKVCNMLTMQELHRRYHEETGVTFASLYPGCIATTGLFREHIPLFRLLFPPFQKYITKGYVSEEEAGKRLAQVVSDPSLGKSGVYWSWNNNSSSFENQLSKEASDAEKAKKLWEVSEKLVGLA

Kd [1]: < 1000 nM | Kd [2]: < 1000 nM | Kd [3]: < 1000 nM | Kd [4]: < 1000 nM
B1: recombinant 6×His-tagged TTP1, RED-NHS labelled (natural protein)
chain: MLMTLAATTSVSFNSKLLLFRIRCSDSNPKRGFGSKKEEKDPALQQRKSSSKQSVSVPRKAPGLNTQFEGKSGRSFDIDFDERLENIRRSALEQKKTEVVKEFGPIDYDAPVKSDQKTIGLGTKVGVGIAVVVFGLVFALGDFLPTGSDSPTKNTTVVKNQISEEEKATLQQRLKEFETTLNGTPQDQAALEGAAVTLTELGDYSRAAAFLEKLAKERPTDPDVFRLLGEVNYELNNYEGSIAAYKISEKVSKGIDLEVTRGLMNAYLAAKKPDEAVKFLLDTRERLNTKKTSTTDSVTDETNLDPIQVELLLGKAYSDWGHISDAIAVYDQLISAHPEDFRGYLAKGIILRENGSRGDAERMFIQARFFAPNKAKALVDRYSKL
modifications: labelled with the RED-NHS Protein Labeling Kit, degree of labeling approximately 1.0
